Measured values reported in article PMC2956612 (Structure (London, England : 1993), 2010).
Ends that are not written are not given here. * marks the point of attachment. Biotin = O=C1N[C@H]2[C@H](CS[C@H]2CCCCC(=O)*)N1

T1: full length VDR/RXRα heterodimer (His-hVDR with Flag-hRXRα) (human, UniProt P11473 1-427; P19793 1-462)
T1 sequence (looked up) 1: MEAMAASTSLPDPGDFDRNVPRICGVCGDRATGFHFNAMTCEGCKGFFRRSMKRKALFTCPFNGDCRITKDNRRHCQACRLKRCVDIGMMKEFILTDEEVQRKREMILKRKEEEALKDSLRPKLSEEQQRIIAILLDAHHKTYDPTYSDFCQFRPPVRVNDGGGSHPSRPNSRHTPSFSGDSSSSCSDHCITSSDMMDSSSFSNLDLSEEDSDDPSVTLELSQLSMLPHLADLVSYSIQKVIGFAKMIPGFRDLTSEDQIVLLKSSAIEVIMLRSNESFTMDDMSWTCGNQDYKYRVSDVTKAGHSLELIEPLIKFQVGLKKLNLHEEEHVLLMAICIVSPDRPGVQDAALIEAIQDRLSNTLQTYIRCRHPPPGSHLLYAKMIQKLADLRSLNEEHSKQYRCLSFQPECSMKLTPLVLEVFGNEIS
T1 sequence (looked up) 2: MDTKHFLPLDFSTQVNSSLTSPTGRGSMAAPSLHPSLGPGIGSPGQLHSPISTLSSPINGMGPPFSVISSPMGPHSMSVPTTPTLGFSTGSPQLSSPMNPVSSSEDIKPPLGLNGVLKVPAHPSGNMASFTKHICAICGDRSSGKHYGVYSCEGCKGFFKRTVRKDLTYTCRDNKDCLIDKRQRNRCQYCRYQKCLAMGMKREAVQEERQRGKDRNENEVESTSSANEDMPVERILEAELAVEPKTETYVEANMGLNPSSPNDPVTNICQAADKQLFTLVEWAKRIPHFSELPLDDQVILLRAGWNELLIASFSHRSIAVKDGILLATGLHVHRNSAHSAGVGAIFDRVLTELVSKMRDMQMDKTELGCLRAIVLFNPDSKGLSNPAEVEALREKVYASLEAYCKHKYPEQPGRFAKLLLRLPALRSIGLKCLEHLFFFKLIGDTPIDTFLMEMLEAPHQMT


Biological target: T1, full length VDR/RXRα heterodimer …
Test: AlphaScreen or HTRF

binding result | Binder
binds | Biotin-KGGTPPPVSSMAGNTKNHPMLMNLLKDNPAQDF [biotinylated DRIP 205-2 peptide]
binds | Biotin-KGGGGSCPSSHSSLTERHKILHRLLQEGSPSDI [biotinylated SRC1-NR2 peptide]
